Data: publication PMC9620470 (Cell chemical biology, 2022)

Target: EPHA4-Flag protein purified from transfected 293FT cells (human, UniProt P54764 20-986)
Assay: pull-down

Chain of EPHA4-Flag protein purified from transfected 293FT cells (P54764 20-986): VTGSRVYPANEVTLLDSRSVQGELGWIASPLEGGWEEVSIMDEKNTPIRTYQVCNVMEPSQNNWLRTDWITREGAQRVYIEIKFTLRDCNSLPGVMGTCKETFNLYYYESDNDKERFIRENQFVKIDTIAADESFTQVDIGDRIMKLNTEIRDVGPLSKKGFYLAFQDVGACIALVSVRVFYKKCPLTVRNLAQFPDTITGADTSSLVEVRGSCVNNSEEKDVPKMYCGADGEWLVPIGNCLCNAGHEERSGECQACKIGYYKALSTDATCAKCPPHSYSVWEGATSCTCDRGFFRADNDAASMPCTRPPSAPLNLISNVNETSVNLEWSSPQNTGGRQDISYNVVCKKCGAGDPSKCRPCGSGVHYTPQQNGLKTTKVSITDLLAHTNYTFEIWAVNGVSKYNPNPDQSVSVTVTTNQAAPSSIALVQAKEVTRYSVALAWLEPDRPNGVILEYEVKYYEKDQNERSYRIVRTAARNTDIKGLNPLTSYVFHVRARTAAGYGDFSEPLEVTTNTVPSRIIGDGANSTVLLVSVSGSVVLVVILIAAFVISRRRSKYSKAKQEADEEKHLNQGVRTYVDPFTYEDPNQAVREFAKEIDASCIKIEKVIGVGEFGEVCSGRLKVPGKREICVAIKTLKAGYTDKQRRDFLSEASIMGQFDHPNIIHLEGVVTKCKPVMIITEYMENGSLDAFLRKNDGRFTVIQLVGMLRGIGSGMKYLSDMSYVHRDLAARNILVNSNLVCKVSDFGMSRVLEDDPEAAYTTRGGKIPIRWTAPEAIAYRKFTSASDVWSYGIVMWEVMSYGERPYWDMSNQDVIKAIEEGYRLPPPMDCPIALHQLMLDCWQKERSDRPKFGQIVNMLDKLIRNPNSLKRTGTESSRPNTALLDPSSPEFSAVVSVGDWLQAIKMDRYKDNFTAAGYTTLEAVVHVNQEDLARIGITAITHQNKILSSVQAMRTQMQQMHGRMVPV

binding result | Binder
binds | GST-GMPR, bacterially purified (enzyme, human) MPRIDADLKLDFKDVLLRPKRSSLKSRAEVDLERTFTFRNSKQTYSGIPIIVANMDTVGTFEMAAVMSQHSMFTAIHKHYSLDDWKLFATNHPECLQNVAVSSGSGQNDLEKMTSILEAVPQVKFICLDVANGYSEHFVEFVKLVRAKFPEHTIMAGNVVTGEMVEELILSGADIIKVGVGPGSVCTTRTKTGVGYPQLSAVIECADSAHGLKGHIISDGGCTCPGDVAKAFGAGADFVMLGGMFSGHTECAGEVFERNGRKLKLFYGMSSDTAMNKHAGGVAEYRASEGKTVEVPYKGDVENTILDILGGLRSTCTYVGAAKLKELSRRATFIRVTQQHNTVFS
binds | GST-GMPR^Y267F, bacterially purified (enzyme, human) MPRIDADLKLDFKDVLLRPKRSSLKSRAEVDLERTFTFRNSKQTYSGIPIIVANMDTVGTFEMAAVMSQHSMFTAIHKHYSLDDWKLFATNHPECLQNVAVSSGSGQNDLEKMTSILEAVPQVKFICLDVANGYSEHFVEFVKLVRAKFPEHTIMAGNVVTGEMVEELILSGADIIKVGVGPGSVCTTRTKTGVGYPQLSAVIECADSAHGLKGHIISDGGCTCPGDVAKAFGAGADFVMLGGMFSGHTECAGEVFERNGRKLKLFFGMSSDTAMNKHAGGVAEYRASEGKTVEVPYKGDVENTILDILGGLRSTCTYVGAAKLKELSRRATFIRVTQQHNTVFS
